According to the supplement of paper PMC10567573:

B1: TRIM29 (parent)
chain: FAEKGELRKSIFSESRKPTVSIME

Variants of: B1
Experiment: protein stability index of a GFP-peptide fusion (GPS, HEK-293T) (PSI 1-6); higher = more stable
Conditions: c terminus: a fixed tail appended
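Also: lentivirally expressed fusions sorted by FACS into six bins by GFP to DsRed ratio, PSI derived from sequencing read proportions per bin multiplied by bin number.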

| Variant | protein stability index |
| --- | --- |
| F12A | 2.74 |
| F12P | 3.96 |
| F12V | 3.1 |
| F12S | 3.69 |
| F12L | 2.41 |
| F12H | 4.04 |
| F12E | 3.84 |
| F12G | 2.59 |
| F12T | 3.54 |
| F12K | 3.54 |
| F12D | 4.25 |
| F12N | 3.43 |
| F12C | 2.96 |
| F12W | 1.14 |
| F12R | 3.66 |
| F12Q | 3.72 |
| F12I | 3.39 |
| F12Y | 2.04 |
| F12M | 3.49 |
| R8V | 2.74 |
| R8S | 1.47 |
| R8T | 2 |
| R8W | 2.85 |
| R8Y | 2.54 |

| Variant | protein stability index |
| --- | --- |
| R16W | 2.29 |
| R16L | 1.99 |
| R16Q | 1.6 |
| R16A | 1.49 |
| R16K | 2.35 |
| R16M | 2.02 |
| R16H | 1.74 |
| R16E | 1.3 |
| R16F | 1.96 |
| R16P | 1.96 |
| R16G | 1.99 |
| R16D | 2.04 |
| R16N | 1.5 |
| R16I | 1.78 |
| R16Y | 1.4 |
| R16S | 1.8 |
| R16T | 1.6 |
| R16C | 1.69 |
| R16V | 2.18 |
| K17M | 1.33 |
| K17D | 1.65 |
| K17I | 2 |
| K17H | 2.11 |
| K17N | 1.39 |

| Variant | protein stability index |
| --- | --- |
| K17E | 1.67 |
| K17L | 2.86 |
| K17A | 2.43 |
| K17F | 2.05 |
| K17C | 1.28 |
| K17G | 1.99 |
| K9Q | 1.8 |
| K9I | 3.48 |
| K9H | 2.16 |
| K9A | 1.77 |
| K9M | 2.02 |
| K9V | 2.74 |
| K9S | 1.88 |
| K9L | 3.5 |
| K9Y | 2.36 |
| K9N | 1.87 |
| K9E | 1.84 |
| K9R | 2.62 |
| K9T | 1.93 |
| K9D | 1.85 |
| K9G | 2.3 |
| K9F | 1.39 |
| K9C | 3.57 |
| K9P | 2.23 |

| Variant | protein stability index |
| --- | --- |
| E14K | 1.99 |
| E14D | 1.54 |
| E14F | 1.85 |
| E14V | 2.05 |
| E14S | 2.31 |
| E14W | 1.76 |
| E14A | 2.01 |
| E14Q | 1.54 |
| E14H | 2.05 |
| E14Y | 1.7 |
| E14G | 1.78 |
| E14R | 1.49 |
| E14P | 3.31 |
| E14I | 2.32 |
| E14L | 1.91 |
| E14N | 1.95 |
| E14M | 1.59 |
| E14T | 2.63 |
| E14C | 2.21 |
| S15P | 2.71 |
| S15A | 1.75 |
| S15R | 1.3 |
| S15H | 1.52 |
| S15D | 2.26 |

| Variant | protein stability index |
| --- | --- |
| S15N | 1.64 |
| S15I | 1.56 |
| S15T | 2.31 |
| S15C | 1.59 |
| S15E | 2.01 |
| S15G | 1.8 |
| S15M | 2.04 |
| S15Q | 2.1 |
| S15Y | 2.04 |
| S15F | 2.3 |
| S15W | 2.29 |
| S15L | 1.96 |
| S15K | 2 |
| S15V | 2.3 |
| S10F | 2.32 |
| S10G | 2 |
| S10Y | 2.04 |
| S10V | 2.46 |
| S10W | 2.35 |
| S10K | 2.17 |
| S10P | 2.27 |
| S10A | 1.91 |
| S10I | 2.48 |
| S10H | 1.84 |

| Variant | protein stability index |
| --- | --- |
| S10C | 1.53 |
| S10M | 2.12 |
| S10L | 1.47 |
| S10Q | 1.52 |
| S10E | 2.12 |
| S10N | 1.76 |
| S10R | 1.35 |
| S10T | 1.82 |
| S10D | 2.12 |
| I11Y | 1.7 |
| I11Q | 3.33 |
| I11E | 3.26 |
| I11V | 1.86 |
| I11C | 1.64 |
| I11W | 2.77 |
| I11T | 2.65 |
| I11N | 3.35 |
| I11F | 2.74 |
| I11L | 1.9 |
| I11H | 2.97 |
| I11A | 2.05 |
| I11S | 3.09 |
| I11G | 3.92 |
| I11M | 1.53 |

| Variant | protein stability index |
| --- | --- |
| I11D | 3.69 |
| I11K | 3.22 |
| I11P | 2.51 |
| I11R | 2.71 |
| S13V | 2.58 |
| S13P | 3.18 |
| S13F | 2.01 |
| S13H | 1.64 |
| S13D | 2.42 |
| S13A | 2.1 |
| S13Y | 2.08 |
| S13M | 2.76 |
| S13I | 1.45 |
| S13Q | 1.75 |
| S13W | 2.55 |
| S13L | 1.84 |
| S13T | 1.87 |
| S13E | 2.71 |
| S13R | 2.19 |
| S13C | 1.67 |
| S13G | 1.7 |
| S13K | 2.21 |
| S13N | 1.75 |
